# Measurements reported in patent publication US8685655B2, “Dissociation method and dissociation agent for avidin and biotin derivatives” (JSR Corporation, priority 2009, dated 2014).
# Columns and labels:
# [1] = molecular target: T1, streptavidin magnetic particles-desthiobiotin-bound probe molecules-target substance complex (Streptomyces avidinii, UniProt P22629); experiment: Dissociation efficiency: target cells released from the capturing carrier by the dissociation agent (quantitative PCR cell count); details: 250 μL dissociation agent liquid in PBS, room temperature, 20 minutes; HT-29 cells isolated / cells bound x 100
# T1 construct: purchased Invitrogen Dynabeads M-280 Streptavidin
# Procedure: The number of cells was determined by measuring the quantity of genome DNA according to the quantitative PCR method.
# (1) Measurement of the Number of Cells Bound to the Capturing Carrier:
# 50 μL of 0.8 mg/mL solution of proteinase K (protease, manufactured by Qiagen N.V.) dissolved in 10-mM Tris-HCl buffer solution (pH: 8.3) was added to the total amount of the combination of the capturing carrier and the target cells yielded in the below Examples and Comparative Example, and the resultant was reacted by heating at 55° C. for 15 minutes to elute DNA. Subsequently, this solution was heated at 95° C. for 20 minutes to inactivate proteinase K. 20 μL of the resultant DNA solution was added to 30 μL of a quantitative PCR cocktail (Fast Start Taq, manufactured by Roche (Co.)) to carry out quantitative PCR. Other DNA solutions prepared by the same method using predetermined number of cells were used to prepare a calibration curve. A 7500 Real-Time PCR System, manufactured by Applied Biosystems (Co.), was used for the quantitative PCR.
# (2) Measurement of the Number of Cells Isolated from the Capturing Carrier: […]
# The efficiency of dissociation of (strept) avidin from the biotin derivative was determined according to the following equation: Efficiency of Dissociation (%)=“the number of the cells isolated from the capturing carrier”/“the number of the cells bound to the capturing carrier”×100
# 1 mg aliquots of the capturing carrier yielded in Preparation Example 2 were added into test tubes. […] The number of the cells bound to the isolated capturing carrier was measured, and the number was 8,500, which was 85% of the number of the cells used for the Example. […]
# [2] = molecular target: avidin (Gallus gallus, UniProt P02701); details: cited from earlier work
# avidin, sequence (P02701 25-152, species assumed): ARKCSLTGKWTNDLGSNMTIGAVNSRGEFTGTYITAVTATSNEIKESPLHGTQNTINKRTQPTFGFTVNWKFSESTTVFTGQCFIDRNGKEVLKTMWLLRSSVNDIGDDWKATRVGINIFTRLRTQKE
# T1 sequence (P22629 25-183, one chain of several): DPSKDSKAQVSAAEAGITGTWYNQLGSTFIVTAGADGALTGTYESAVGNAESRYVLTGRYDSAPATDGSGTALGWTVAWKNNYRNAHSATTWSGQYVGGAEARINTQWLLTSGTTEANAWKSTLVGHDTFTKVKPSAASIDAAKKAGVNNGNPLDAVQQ
Molecule,Dissociation efficiency (%) [1] [%],binding constant with avidin [2]
BSA-Biotin6: dissociation agent in which six (6) in average of biotin were bound to one molecule of BSA,70,–
BSA-Biotin10: dissociation agent in which ten (10) in average of biotin were bound to one molecule of BSA,96,–
"O=C(O)CCCC[C@@H]1SC[C@@H]2NC(=O)N[C@@H]21 [Biotin, biotin]",3,10^15 M
